Measured values from PMC10397247.
Each block holds one binder with its values, some of them ahead of it.

Key:
O9-bN = target: T1, O9-bN; assay: two-hybrid library CCNG1;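 also: natural log of median RNA to DNA barcode read ratio; higher means stronger binding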
T1 chain: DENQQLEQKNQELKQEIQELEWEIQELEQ

O5-bN = target: T2, O5-bN; assay: two-hybrid library CCNG1;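 also: natural log of median RNA to DNA barcode read ratio; higher means stronger binding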
T2 chain: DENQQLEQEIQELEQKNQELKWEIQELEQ

O3-bN = target: T3, O3-bN; assay: two-hybrid library CCNG1;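 also: natural log of median RNA to DNA barcode read ratio; higher means stronger binding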
T3 chain: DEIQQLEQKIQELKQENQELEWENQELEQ

O8-bN = target: T4, O8-bN; assay: two-hybrid library CCNG1;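 also: natural log of median RNA to DNA barcode read ratio; higher means stronger binding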
T4 chain: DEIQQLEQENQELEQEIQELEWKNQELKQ

O4-bN = target: T5, O4-bN; assay: two-hybrid library CCNG1;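 also: natural log of median RNA to DNA barcode read ratio; higher means stronger binding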
T5 chain: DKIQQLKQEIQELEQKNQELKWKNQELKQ

O7-bN = target: T6, O7-bN; assay: two-hybrid library CCNG1;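 also: natural log of median RNA to DNA barcode read ratio; higher means stronger binding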
T6 chain: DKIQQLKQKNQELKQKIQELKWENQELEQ

O6-bN = target: T7, O6-bN; assay: two-hybrid library CCNG1
T7 chain: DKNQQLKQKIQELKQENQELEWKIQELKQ

O2-bN = target: T8, O2-bN; assay: two-hybrid library CCNG1
T8 chain: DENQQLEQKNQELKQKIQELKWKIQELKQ

P7A-bH = target: T9, P7A-bH; assay: two-hybrid library CCNG1
T9 chain: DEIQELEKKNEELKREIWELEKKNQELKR

P8A-bH = target: T10, P8A-bH; assay: two-hybrid library CCNG1
T10 chain: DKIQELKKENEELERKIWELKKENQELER

P9A-bH = target: T11, P9A-bH; assay: two-hybrid library CCNG1
T11 chain: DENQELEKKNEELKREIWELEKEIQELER

4H2697-bN = target: T12, 4H2697-bN; assay: two-hybrid library CCNG1
T12 chain: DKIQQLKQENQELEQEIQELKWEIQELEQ

4H687-bN = target: T13, 4H687-bN; assay: two-hybrid library CCNG1
T13 chain: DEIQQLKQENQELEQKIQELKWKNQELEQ

4H3843-bN = target: T14, 4H3843-bN; assay: two-hybrid library CCNG1
T14 chain: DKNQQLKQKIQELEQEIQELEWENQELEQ

4H797-bN = target: T15, 4H797-bN; assay: two-hybrid library CCNG1
T15 chain: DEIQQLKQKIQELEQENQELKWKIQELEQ

4H370-bN = target: T16, 4H370-bN; assay: two-hybrid library CCNG1
T16 chain: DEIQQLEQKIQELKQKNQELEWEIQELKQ

4H3782-bN = target: T17, 4H3782-bN; assay: two-hybrid library CCNG1
T17 chain: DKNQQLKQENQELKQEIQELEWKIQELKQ

4H918-bN = target: T18, 4H918-bN; assay: two-hybrid library CCNG1
T18 chain: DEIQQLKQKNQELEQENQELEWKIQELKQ

4H953-bN = target: T19, 4H953-bN; assay: two-hybrid library CCNG1
T19 chain: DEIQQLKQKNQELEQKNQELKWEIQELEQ

4H3189-bN = target: T20, 4H3189-bN; assay: two-hybrid library CCNG1
T20 chain: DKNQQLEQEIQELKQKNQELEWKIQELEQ

4H331-bN = target: T21, 4H331-bN; assay: two-hybrid library CCNG1
T21 chain: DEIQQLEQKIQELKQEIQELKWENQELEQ

4H462-bN = target: T22, 4H462-bN; assay: two-hybrid library CCNG1
T22 chain: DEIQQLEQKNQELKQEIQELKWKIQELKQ

4H883-bN = target: T23, 4H883-bN; assay: two-hybrid library CCNG1
T23 chain: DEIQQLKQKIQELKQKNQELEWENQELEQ

4H568-bN = target: T24, 4H568-bN; assay: two-hybrid library CCNG1
T24 chain: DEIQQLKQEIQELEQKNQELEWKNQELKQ

4H4001-bN = target: T25, 4H4001-bN; assay: two-hybrid library CCNG1
T25 chain: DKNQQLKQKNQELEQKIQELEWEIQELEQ

4H607-bN = target: T26, 4H607-bN; assay: two-hybrid library CCNG1
T26 chain: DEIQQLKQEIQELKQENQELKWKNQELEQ

4H3606-bN = target: T27, 4H3606-bN; assay: two-hybrid library CCNG1
T27 chain: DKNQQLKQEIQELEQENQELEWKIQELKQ

4H72-bN = target: T28, 4H72-bN; assay: two-hybrid library CCNG1
T28 chain: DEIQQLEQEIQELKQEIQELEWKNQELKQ

4H967-bN = target: T29, 4H967-bN; assay: two-hybrid library CCNG1
T29 chain: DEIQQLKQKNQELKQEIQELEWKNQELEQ

4H390-AA = target: T30, 4H390-AA; assay: two-hybrid library CCmax; details: mean of both orientations
T30 chain: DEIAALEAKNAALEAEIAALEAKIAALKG

4H3625-AA = target: T31, 4H3625-AA; assay: two-hybrid library CCmax; details: mean of both orientations
T31 chain: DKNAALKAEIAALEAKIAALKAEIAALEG

4H775-AA = target: T32, 4H775-AA; assay: two-hybrid library CCmax; details: mean of both orientations
T32 chain: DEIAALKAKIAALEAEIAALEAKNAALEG

4H510-AA = target: T33, 4H510-AA; assay: two-hybrid library CCmax; details: mean of both orientations
T33 chain: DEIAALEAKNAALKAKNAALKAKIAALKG

4H2758-AA = target: T34, 4H2758-AA; assay: two-hybrid library CCmax; details: mean of both orientations
T34 chain: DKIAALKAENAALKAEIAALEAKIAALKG

4H2985-AA = target: T35, 4H2985-AA; assay: two-hybrid library CCmax; details: mean of both orientations
T35 chain: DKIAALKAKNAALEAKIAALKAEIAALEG

4H2705-AA = target: T36, 4H2705-AA; assay: two-hybrid library CCmax; details: mean of both orientations
T36 chain: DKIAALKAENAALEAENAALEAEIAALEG

4H3134-AA = target: T37, 4H3134-AA; assay: two-hybrid library CCmax; details: mean of both orientations
T37 chain: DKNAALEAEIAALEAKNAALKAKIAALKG

4H3409-AA = target: T38, 4H3409-AA; assay: two-hybrid library CCmax; details: mean of both orientations
T38 chain: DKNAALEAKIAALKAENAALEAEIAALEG

4H2873-AA = target: T39, 4H2873-AA; assay: two-hybrid library CCmax; details: mean of both orientations
T39 chain: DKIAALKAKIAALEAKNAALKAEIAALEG

4H278-AA = target: T40, 4H278-AA; assay: two-hybrid library CCmax; details: mean of both orientations
T40 chain: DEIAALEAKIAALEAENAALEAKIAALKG

4H87-AA = target: T41, 4H87-AA; assay: two-hybrid library CCmax; details: mean of both orientations
T41 chain: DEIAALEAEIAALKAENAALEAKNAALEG

4H816-AA = target: T42, 4H816-AA; assay: two-hybrid library CCmax; details: mean of both orientations
T42 chain: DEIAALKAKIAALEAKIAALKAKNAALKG

4H3940-AA = target: T43, 4H3940-AA; assay: two-hybrid library CCmax; details: mean of both orientations
T43 chain: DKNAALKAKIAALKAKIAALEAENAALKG

4H2687-AA = target: T44, 4H2687-AA; assay: two-hybrid library CCmax
T44 chain: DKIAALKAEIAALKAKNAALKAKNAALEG

Binder: DENQQLEQKNQELKQKIQELKWKIQELKQ [O2-bN]
interaction score (O9-bN): 0.719 | interaction score (O5-bN): -0.76 | interaction score (O3-bN): -1.2 | interaction score (O8-bN): 0.817 | interaction score (O4-bN): -1.97 | interaction score (O7-bN): -0.634 | interaction score (O6-bN): -1.5 | interaction score (O2-bN): -0.646

Binder: DEIQQLEQKIQELKQENQELEWENQELEQ [O3-bN]
interaction score (O9-bN): -0.842 | interaction score (O5-bN): -0.619 | interaction score (O3-bN): -0.142 | interaction score (O8-bN): -0.285 | interaction score (O4-bN): 2.41 | interaction score (O7-bN): -1.23 | interaction score (O6-bN): -0.337

Now from value to binder:

interaction score (P7A-bH): -0.0377 | interaction score (P8A-bH): 1.64 | interaction score (P9A-bH): -0.442
Binder: DEIQELEKKNEELKREIWELEKKNQELKR [P7A-bH]

interaction score (4H2697-bN): -0.736 | interaction score (4H687-bN): -1.12 | interaction score (4H3843-bN): -0.916 | interaction score (4H797-bN): -0.83 | interaction score (4H370-bN): -0.695 | interaction score (4H3782-bN): -1.03 | interaction score (4H918-bN): -1.97 | interaction score (4H953-bN): -0.808 | interaction score (4H3189-bN): -1.43 | interaction score (4H331-bN): -0.941 | interaction score (4H462-bN): 1.31 | interaction score (4H883-bN): -0.654 | interaction score (4H568-bN): -1.07 | interaction score (4H4001-bN): -0.819 | interaction score (4H607-bN): -1.63 | interaction score (4H3606-bN): -0.924 | interaction score (4H72-bN): -1.14 | interaction score (4H967-bN): -1.15
Binder: DKIQQLKQENQELEQEIQELKWEIQELEQ [4H2697-bN]

interaction score (4H390-AA): -1.43 | interaction score (4H3625-AA): -0.539 | interaction score (4H775-AA): -0.777 | interaction score (4H510-AA): -1.76 | interaction score (4H2758-AA): -1.78 | interaction score (4H2985-AA): -1.59 | interaction score (4H2705-AA): -1.7 | interaction score (4H3134-AA): -1.43 | interaction score (4H3409-AA): -0.818 | interaction score (4H2873-AA): -1.74 | interaction score (4H278-AA): 1.88 | interaction score (4H87-AA): 1.53 | interaction score (4H816-AA): -1.46 | interaction score (4H3940-AA): -1.7 | interaction score (4H2687-AA): -0.386
Binder: DKIAALKAEIAALKAKNAALKAKNAALEG [4H2687-AA]
